Measurements reported in patent US20170333524A1.

What was measured:
[1] = target: MART-1 (ELA peptide) peptide on HLA-A*02:01 (human); test: SPR, Biacore 3000; TCR amine-coupled to a CM5 chip, refolded pMHC injected, 25 °C, 1:1 Langmuir fit; soluble, other
[2] = target: MART-1 (ELA peptide) peptide on HLA-A*02:01 (human); test: SPR, Biacore 3000; TCR amine-coupled to a CM5 chip, refolded ELA/HLA-A2 injected, 25 °C (Table 3, ELA); soluble, other
[3] = target: MART-1 (ELA peptide) peptide on HLA-A*02:01 (human); test: SPR, Biacore 3000; TCR on the chip, refolded pMHC injected. The row prints the target as 'AAG (SEQ ID NO 5', but its ratio 395.8 is taken against the WT ELA value 9.5, and Table 3 gives 0.024 under ELA); soluble, other

Row | Substance | Kd [1] [nM] | Kd [2] [nM] | Kd [3] [nM]
1 | DMF5 TCR βL98W | 2900 |  | 
2 | DMF5 TCR αD26Y/βL98W |  | 24 | 24
